Series [1] addresses T1, ThrRS (threonyl-tRNA synthetase) (Escherichia coli, UniProt P0A8M3 SEQ:13-654). The series can be described thus: EMSA; 50 mM KCl, 5 mM MgCl2, 0-40 uM protein; stronger than Domain 2. To be noted: tags: His tag (pQE-30); label: 32P. On the procedure: (§1) The reaction of ThrRS with Domain 234 or Domain 2 was performed as follows under conditions involving final concentrations of 20 nM RNA, 25 mM Hepes-KOH, 50 mM KCl, 5 mM MgCl₂, 1 mM DTT, 5% glycerol, and 0 to 40 μM protein. First, […] ³²P-labeled RNA was denatured at 80° C. for 5 minutes and then supplemented with 4 μL of 5×binding buffer ([…], 250 mM KCl, 25 mM MgCl₂, 5 mM DTT, 25% glycerol) and ultrapure water. Then, the solution was mixed with the protein to adjust the whole amount to 20 μL. The reaction solution was left on ice for 60 minutes. 2 μL of dye (0.25% BPB, 0.25% XC, 30% glycerol) was added thereto, and the mixture was electrophoresed on a 12% nondenaturing polyacrylamide gel at 4° C. for 3 to 4 hours. Then, the gel was dried for 1 hour using a gel drier and analyzed for its radiation dose intensity using Bio-Imaging Analyzer (BAS2500; FUJIFILM) (FIGS. 6 and 7).
(§2) As a result, both ThrRS Domain 234 and ThrRS Domain 2 were confirmed to increase the band in a ThrRS protein concentration-dependent manner. […] As is also evident from the degree of band smear, Domain 234 has stronger binding than only Domain 2.
On the technique in general: Mobility shift assays separate free from complexed probe on a gel.

The target of series [2] is T2, L7Ae (Archaeoglobus fulgidus, UniProt O29494 SEQ:21-139). Put plainly: EMSA; no band increase at 0-500 nM protein. To be noted: tags: His tag (pET-28b+, NdeI/XhoI); label: 32P. On the procedure: (§3) The reaction of L7Ae with Box C/D, Box C/D mini, or Box C/D minimut was performed at a final concentration of 10 nM, 25 nM, or 25 nM RNA, respectively. The reaction was performed as follows under conditions involving 10 nM or 25 nM RNA, 20 mM Hepes-KOH, 150 mM KCl, 1.5 mM MgCl₂, 2 mM DTT, 0.001 U/mL tRNA, 3% glycerol, and 0 to 500 nM protein. First, 1 μL of ³²P-labeled RNA was denatured at 80° C. for 5 minutes and then supplemented with 4 μL of 5×binding buffer (100 mM Hepes-KOH (pH 7.5), 750 mM KCl, 7.5 mM MgCl₂, 10 mM DTT, 0.005 U/ρL tRNA, 15% glycerol) and ultrapure water. Then, the solution was mixed with the protein to adjust the whole amount to 20 μL. The reaction solution was left on ice for 60 minutes. 2 μL of dye (0.25% BPB, 0.25% XC, 30% glycerol) was added thereto, and the mixture was electrophoresed on a 8% nondenaturing polyacrylamide gel at 4° C. for 3 to 4 hours. Then, the gel was dried for 1 hour using a gel drier and analyzed for its radiation dose intensity using Bio-Imaging Analyzer (BAS2500; FUJIFILM) (FIGS. 4 and 5).
T2 sequence (O29494 whole entry): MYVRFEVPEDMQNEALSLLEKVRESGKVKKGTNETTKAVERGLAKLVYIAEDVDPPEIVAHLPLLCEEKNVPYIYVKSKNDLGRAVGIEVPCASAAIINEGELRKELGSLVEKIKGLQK
(§4) As a result, both Box C/D and Box C/D mini were confirmed to increase the band in an L7Ae protein concentration-dependent manner.

For series [3], the target named is T2, L7Ae. The series can be described thus: EMSA; 150 mM KCl, 1.5 mM MgCl2, tRNA competitor, 0-500 nM protein, on ice. To be noted: tags: His tag (pET-28b+, NdeI/XhoI); label: 32P. Here is the method: as §3
Series [4] concerns the target T1, ThrRS (threonyl-tRNA synthetase). The series can be described thus: EMSA; 50 mM KCl, 5 mM MgCl2, 0-40 uM protein; supershift suggests dimer; weaker than Domain 234. As to conditions: tags: His tag (pQE-30); label: 32P. On the procedure:
as §1, §2

In series [5] the target is T2, L7Ae. The series can be described thus: EMSA; 150 mM KCl, 1.5 mM MgCl2, tRNA competitor, 0-500 nM protein, on ice. To be noted: tags: His tag (pET-28b+, NdeI/XhoI); label: 32P. Here is the method:
as §3, §4
The source holds these as a separate data set.

T1 sequence (P0A8M3 whole entry, the tested form may be a part): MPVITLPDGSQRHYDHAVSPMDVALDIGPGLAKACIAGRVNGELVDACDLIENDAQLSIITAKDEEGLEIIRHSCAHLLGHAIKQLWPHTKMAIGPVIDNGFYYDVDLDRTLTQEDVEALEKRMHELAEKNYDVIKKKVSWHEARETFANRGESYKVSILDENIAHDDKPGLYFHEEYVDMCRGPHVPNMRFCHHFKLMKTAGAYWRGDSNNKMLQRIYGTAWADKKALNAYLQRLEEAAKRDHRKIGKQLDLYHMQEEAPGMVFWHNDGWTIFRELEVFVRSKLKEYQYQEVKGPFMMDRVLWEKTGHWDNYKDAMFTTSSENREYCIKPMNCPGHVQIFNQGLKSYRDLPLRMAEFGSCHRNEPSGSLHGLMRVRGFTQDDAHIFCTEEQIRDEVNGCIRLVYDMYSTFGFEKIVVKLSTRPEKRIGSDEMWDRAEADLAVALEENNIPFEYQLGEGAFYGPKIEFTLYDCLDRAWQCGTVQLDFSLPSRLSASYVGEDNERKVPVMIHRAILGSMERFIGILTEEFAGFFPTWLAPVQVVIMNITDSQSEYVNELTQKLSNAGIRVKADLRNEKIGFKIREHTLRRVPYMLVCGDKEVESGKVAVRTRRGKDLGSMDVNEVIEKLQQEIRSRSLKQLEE

B1: ThrRS Domain 234 (ssRNA)
RNA: GGAUUGCGAACCAAUUUAGCAUUUGUUGGCUGCAAAUGGUUUCGCAAUGAACUGUUAAUAAACAAAUUUUUCUUUGUAUGUGAUCUUUCGUGUGGGUCACCACUGCAAA
For the molecule B1, in series [1], the binding result is reported as “binds”. As for GGGCGUCAUGCGAAAGCUGCCCC (ssRNA) [Box C/D minimut], the binding result in series [2] is “no binding”.

B2: Box C/D (ssRNA)
RNA: GGCCAGAGUGGGCGUGAUGCAUGUCUAGGAAACUAGACAUGCUGACCCACUCUGGCC
B2: the binding result in series [3] is “binds”. Take GGCGUAUGUGAUCUUUCGUGUGGGUCACCACUGCGCC (ssRNA) [ThrRS Domain 2]: in series [4], the binding result was “binds”. As for GGGCGUGAUGCGAAAGCUGACCC (ssRNA) [Box C/D mini], in series [5], the binding result is “binds”.

Values taken from patent publication US20110040077, “Protein-Responsive Translational Regulatory System Using RNA-Protein Interacting Motif” (JAPAN SCIENCE AND TECHNOLOGY AGENCY, published 2011).
